Conditions in all cases: both partners purified
In test [1] the target is T1, p63 DNA-binding domain (human).
T1 construct: also called p63 DBD; source: E. coli BL21(DE3) Rosetta, purified (IMAC, TEV digestion, reverse IMAC, SEC)
Briefly: ITC; target protein titrated into a constant concentration of DARPin, 25 injections of 10 µl; 50 mM HEPES pH 7.4, 150 mM NaCl, 0.5 mM TCEP; 10 °C; AB hetero-association model (SEDPHAT).

The target of test [2] is T2, p73 DNA-binding domain.
T2 construct: also called p73 DBD; source: E. coli BL21(DE3) Rosetta, purified (IMAC, TEV digestion, reverse IMAC, SEC)
Nature of the test: ITC; target protein titrated into a constant concentration of DARPin, 25 injections of 10 µl; 50 mM HEPES pH 7.4, 150 mM NaCl, 0.5 mM TCEP; 25 °C; AB hetero-association model (SEDPHAT).

Test [3] addresses T3, ΔNp63α (human, UniProt Q9H3D4-2 1-586).
T3 construct: open, tetrameric; also called DNp63a; source: E. coli, bacterially expressed and purified (IMAC, SEC on Superose 6)
T3 sequence (looked up): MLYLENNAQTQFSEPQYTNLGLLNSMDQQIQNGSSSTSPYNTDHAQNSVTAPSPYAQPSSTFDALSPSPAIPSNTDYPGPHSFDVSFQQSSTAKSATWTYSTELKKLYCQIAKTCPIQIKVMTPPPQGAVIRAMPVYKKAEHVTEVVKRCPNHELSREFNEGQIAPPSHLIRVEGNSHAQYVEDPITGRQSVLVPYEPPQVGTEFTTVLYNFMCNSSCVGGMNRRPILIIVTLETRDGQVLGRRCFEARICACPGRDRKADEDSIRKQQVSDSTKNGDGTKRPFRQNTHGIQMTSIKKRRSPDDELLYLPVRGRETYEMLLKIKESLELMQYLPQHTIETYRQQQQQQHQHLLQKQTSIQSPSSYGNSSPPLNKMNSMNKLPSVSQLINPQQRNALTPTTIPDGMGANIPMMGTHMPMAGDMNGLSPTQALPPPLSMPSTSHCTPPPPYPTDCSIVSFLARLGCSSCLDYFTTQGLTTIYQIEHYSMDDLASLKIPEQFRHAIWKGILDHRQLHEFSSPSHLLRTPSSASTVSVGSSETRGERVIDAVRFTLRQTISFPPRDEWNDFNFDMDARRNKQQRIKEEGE
Briefly: fluorescence polarisation; fluorescence anisotropy; 500 nM Alexa 488 labeled DARPin constant, p63 isoform 0-10 µM; 50 mM Tris pH 8, 150 mM NaCl, 0.5 mM TCEP, 0.1 % Tween-20; the sheet says 20 °C, the methods 16 °C. A general note: Fluorescence polarisation rises when a labelled molecule tumbles more slowly, as on binding a larger partner.

Test [4] addresses T4, TAp63α (human).
T4 construct: closed, dimeric; also called TAp63a; source: E. coli, bacterially expressed and purified (IMAC, SEC on Superdex 200)
The description is as above.

B1: DARPin G4 (designed binder)
chain: GSDLGKKLLEAARAGQDDEVRILMANGADVNAADHSGDTPLHLAAMEGHLEIVEVLLKTGADVNAHDLEGYTPLHLAAYHGHLEIVEVLLKAGADVNAWDSYGYTPLHLAAMTGHLEIVEVLLKHGADVNAQDKFGKTPFDLAIDNGNEDIAEVLQKAA
modifications: G4 assigned to 7Z7E by elimination: 7Z71 = C14, 7Z72 = A5, 7Z73 = 8F1; 7Z7E is the other p63 DBD-DARPin complex
Take B1: the results for the Ka in test [1] and in test [2] were 3.14e+07 M⁻¹ and 4.48e+06 M⁻¹, respectively.

B2: Alexa 488 labeled DARPin G4 (designed binder)
chain: GSDLGKKLLEAARAGQDDEVRILMANGADVNAADHSGDTPLHLAAMEGHLEIVEVLLKTGADVNAHDLEGYTPLHLAAYHGHLEIVEVLLKAGADVNAWDSYGYTPLHLAAMTGHLEIVEVLLKHGADVNAQDKFGKTPFDLAIDNGNEDIAEVLQKAA
modifications: Alexa Fluor 488 C5 maleimide on the C-terminal cysteine
As a reminder, the Kd is the concentration at which binding is half-saturated. For B2, the results for the dissociation constant Kd in test [3] and in test [4] were 137 nM and 727 nM, respectively.

For the origin of these results see paper PMC9751120 (Cell Death and Differentiation, 2022).
